Read-outs that look alike come from different tables or passages of the source. One block for each molecule: values may come before it.
Assays:
[1] = tested on: HT-1080 cells; assay: Plasmin release from plasmin-loaded HT-1080 cells; format: cell-based, human; conditions: 1 mM tranexamic acid added to the serum-containing medium
Protocol: FIG. 24. Plasmin release from HT-1080 cells into serum-free and serum-containing media. Confluent layers of HT-1080 cells were first loaded with plasmin by incubation for 1 hour at 37° C. in serum-free MEM medium (0.5 ml) containing human plasmin (0-5 μg/ml). After rinsing the cell layers three times, they were incubated for 2 hours at 37° C. with either serum-free medium (∘ - - - ∘), medium containing 10% heat-inactivated and plasminogen-depleted fetal calf serum (● - - - ●), or the latter with tranexamic acid (100 μM) (▪ - - - ▪). Plasmin was then assayed in the cell-bound fraction (A) and the media (B). At the time of transfer to new media, there was approximately 28 ng of plasmin bound to the cells from the pretreatment with 2.5 μg of plasmin/well.
In the Examples concerning plasmin binding to cells from medium, human plasmin (approximately 18 CU/mg; Kabi Diagnostica, Stockholm, Sweden) was added to the cultures at final concentrations of 0-5 μg/ml. The cells were incubated for 3 hours at 37° C. before assay of cell-bound and supernatant plasmin (see below). For plasmin release experiments, cells were loaded for 1 hour at 37° C. with 0-5 μg/ml plasmin in serum-free medium, then rinsed three times with MEM.
Plasmin bound to the cell layer was recovered and assayed as follows. After harvest of culture medium, the cells were rinsed three times with PBS (plasmin assays of further rinses were negative); then the bound plasmin was specifically eluted (Miles, L. A., and E. F. Plow, “Binding and activation of plasminogen on the platelet surface”, J. Biol. Chem. 260: 4303-4311, 1985) with a solution of 1 mM tranexamic acid in the same rinsing solution (150 μl/well). Plasmin activity was assayed in eluate samples (50 μl) as above with an incubation time of 3 hours at 37° C. Tranexamic acid at 1 mM had no effect on the thioesterase activity of plasmin in these assays.

[2] = tested on: cultured cells; conditions: plasminogen, cultured cells; cited from earlier work
[3] = target: thrombospondin (Homo sapiens, UniProt P07996); conditions: purified thrombospondin; cited from earlier work
[4] = target: fibronectin (Homo sapiens, UniProt P02751); conditions: immobilized fibronectin; cited from earlier work
[5] = target: uPAR-bound u-PA (Homo sapiens, UniProt P00749); format: cell-based
Protocol: U937 cells were grown in suspension in RPMI 1640 medium supplemented with 5% heat-inactivated fetal calf serum. PMA-stimulation of U937 cells was performed at a cell density of […] cells/ml with 150 nM PMA for 4 days. The adherent cell population was harvested with a rubber scraper and resuspended in PBS. […] The effect of PAI's on the activity of cell-bound u-PA was determined by the addition of varying concentrations of PAI-1 (0.18-18.4 nM) or PAI-2 (1.13-56.7 nM) to the incubations at the same time as the addition of plasminogen. Curves were then constructed of plasmin concentration against time. […] [pln]∞ was calculated from the relationship: [[…]]0) equation.2 where Δ[pln]0 is the initial rate of plasmin generation which was determined in control incubations in the absence of inhibitors. […] Association rate constants (second-order rate constants) were calculated from the slope of the line of double reciprocal plots of kapp against inhibitor concentration.

[6] = target: u-PA (Homo sapiens, UniProt P00749); assay: Inhibition of u-PA in solution by PAI's (association rate constants); format: biochemical
Excerpt: Plasminogen was purified from fresh human plasma as previously described (Danø and Reich, 1979), and was further separated into its two isoforms by elution from lysine-Sepharose with a linear gradient of 6-amino-hexanoic acid. Plasminogen isoform 2 was used in all experiments described here. u-PA (Mr 55,000) was obtained either by plasmin activation of pro-uPA (Ellis et al., 1987) or as Ukidan (Serono). Both preparations were greater than 95% high molecular weight u-PA by SDS-polyacrylamide gel electrophoresis. The concentration of active u-PA in these preparations was determined by active-site titration with p-nitrophenyl-p-guanidinobenzoate (Sigma Chem. Co.). DFP-inactivated u-PA was prepared as described in Example 1. […] The concentrations of active inhibitor in the various PAI preparations were determined by titration against u-PA immediately before use in the kinetic experiments. […] Residual u-PA activity was then measured by hydrolysis of 0.2 mM Glu-Gly-Arg-AMC (Bachem, Switzerland).
The effect of PAI's on the activity of cell-bound u-PA was determined by the addition of varying concentrations of PAI-1 (0.18-18.4 nM) or PAI-2 (1.13-56.7 nM) to the incubations at the same time as the addition of plasminogen. […]
[pln]∞ was calculated from the relationship: […]
where Δ[pln]0 is the initial rate of plasmin generation which was determined in control incubations in the absence of inhibitors. […]

Chain of thrombospondin (P07996 19-1170): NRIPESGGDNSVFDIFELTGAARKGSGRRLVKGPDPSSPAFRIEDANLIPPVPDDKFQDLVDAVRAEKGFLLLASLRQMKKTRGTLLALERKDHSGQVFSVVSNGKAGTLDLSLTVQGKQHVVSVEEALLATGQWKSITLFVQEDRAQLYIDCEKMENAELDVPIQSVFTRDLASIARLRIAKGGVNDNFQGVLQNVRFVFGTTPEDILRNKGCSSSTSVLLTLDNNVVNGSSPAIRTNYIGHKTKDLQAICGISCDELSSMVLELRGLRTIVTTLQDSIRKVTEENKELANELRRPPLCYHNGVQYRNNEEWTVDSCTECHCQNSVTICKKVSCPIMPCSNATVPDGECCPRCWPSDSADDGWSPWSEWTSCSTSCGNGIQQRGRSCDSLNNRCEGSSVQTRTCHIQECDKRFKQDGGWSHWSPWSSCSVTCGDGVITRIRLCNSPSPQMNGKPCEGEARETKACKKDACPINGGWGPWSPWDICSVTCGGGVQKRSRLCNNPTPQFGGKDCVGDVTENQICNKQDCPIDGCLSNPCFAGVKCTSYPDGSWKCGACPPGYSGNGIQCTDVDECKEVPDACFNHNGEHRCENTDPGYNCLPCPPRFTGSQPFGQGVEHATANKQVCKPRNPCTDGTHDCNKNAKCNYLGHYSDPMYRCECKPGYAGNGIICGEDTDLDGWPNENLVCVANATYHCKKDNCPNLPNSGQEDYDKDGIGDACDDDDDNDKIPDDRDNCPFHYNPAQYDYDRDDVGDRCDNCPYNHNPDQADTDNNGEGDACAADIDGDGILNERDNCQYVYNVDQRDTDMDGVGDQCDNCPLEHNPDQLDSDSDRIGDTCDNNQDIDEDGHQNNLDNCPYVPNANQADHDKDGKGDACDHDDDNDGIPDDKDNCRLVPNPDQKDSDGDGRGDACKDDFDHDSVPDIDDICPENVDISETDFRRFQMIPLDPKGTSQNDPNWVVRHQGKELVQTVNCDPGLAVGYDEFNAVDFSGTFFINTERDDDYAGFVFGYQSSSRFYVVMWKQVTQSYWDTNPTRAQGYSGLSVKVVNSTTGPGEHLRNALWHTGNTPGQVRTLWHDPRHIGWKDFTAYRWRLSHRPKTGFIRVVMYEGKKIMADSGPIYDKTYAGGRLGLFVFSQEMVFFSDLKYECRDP
Chain of fibronectin (P02751 32-2477, species assumed): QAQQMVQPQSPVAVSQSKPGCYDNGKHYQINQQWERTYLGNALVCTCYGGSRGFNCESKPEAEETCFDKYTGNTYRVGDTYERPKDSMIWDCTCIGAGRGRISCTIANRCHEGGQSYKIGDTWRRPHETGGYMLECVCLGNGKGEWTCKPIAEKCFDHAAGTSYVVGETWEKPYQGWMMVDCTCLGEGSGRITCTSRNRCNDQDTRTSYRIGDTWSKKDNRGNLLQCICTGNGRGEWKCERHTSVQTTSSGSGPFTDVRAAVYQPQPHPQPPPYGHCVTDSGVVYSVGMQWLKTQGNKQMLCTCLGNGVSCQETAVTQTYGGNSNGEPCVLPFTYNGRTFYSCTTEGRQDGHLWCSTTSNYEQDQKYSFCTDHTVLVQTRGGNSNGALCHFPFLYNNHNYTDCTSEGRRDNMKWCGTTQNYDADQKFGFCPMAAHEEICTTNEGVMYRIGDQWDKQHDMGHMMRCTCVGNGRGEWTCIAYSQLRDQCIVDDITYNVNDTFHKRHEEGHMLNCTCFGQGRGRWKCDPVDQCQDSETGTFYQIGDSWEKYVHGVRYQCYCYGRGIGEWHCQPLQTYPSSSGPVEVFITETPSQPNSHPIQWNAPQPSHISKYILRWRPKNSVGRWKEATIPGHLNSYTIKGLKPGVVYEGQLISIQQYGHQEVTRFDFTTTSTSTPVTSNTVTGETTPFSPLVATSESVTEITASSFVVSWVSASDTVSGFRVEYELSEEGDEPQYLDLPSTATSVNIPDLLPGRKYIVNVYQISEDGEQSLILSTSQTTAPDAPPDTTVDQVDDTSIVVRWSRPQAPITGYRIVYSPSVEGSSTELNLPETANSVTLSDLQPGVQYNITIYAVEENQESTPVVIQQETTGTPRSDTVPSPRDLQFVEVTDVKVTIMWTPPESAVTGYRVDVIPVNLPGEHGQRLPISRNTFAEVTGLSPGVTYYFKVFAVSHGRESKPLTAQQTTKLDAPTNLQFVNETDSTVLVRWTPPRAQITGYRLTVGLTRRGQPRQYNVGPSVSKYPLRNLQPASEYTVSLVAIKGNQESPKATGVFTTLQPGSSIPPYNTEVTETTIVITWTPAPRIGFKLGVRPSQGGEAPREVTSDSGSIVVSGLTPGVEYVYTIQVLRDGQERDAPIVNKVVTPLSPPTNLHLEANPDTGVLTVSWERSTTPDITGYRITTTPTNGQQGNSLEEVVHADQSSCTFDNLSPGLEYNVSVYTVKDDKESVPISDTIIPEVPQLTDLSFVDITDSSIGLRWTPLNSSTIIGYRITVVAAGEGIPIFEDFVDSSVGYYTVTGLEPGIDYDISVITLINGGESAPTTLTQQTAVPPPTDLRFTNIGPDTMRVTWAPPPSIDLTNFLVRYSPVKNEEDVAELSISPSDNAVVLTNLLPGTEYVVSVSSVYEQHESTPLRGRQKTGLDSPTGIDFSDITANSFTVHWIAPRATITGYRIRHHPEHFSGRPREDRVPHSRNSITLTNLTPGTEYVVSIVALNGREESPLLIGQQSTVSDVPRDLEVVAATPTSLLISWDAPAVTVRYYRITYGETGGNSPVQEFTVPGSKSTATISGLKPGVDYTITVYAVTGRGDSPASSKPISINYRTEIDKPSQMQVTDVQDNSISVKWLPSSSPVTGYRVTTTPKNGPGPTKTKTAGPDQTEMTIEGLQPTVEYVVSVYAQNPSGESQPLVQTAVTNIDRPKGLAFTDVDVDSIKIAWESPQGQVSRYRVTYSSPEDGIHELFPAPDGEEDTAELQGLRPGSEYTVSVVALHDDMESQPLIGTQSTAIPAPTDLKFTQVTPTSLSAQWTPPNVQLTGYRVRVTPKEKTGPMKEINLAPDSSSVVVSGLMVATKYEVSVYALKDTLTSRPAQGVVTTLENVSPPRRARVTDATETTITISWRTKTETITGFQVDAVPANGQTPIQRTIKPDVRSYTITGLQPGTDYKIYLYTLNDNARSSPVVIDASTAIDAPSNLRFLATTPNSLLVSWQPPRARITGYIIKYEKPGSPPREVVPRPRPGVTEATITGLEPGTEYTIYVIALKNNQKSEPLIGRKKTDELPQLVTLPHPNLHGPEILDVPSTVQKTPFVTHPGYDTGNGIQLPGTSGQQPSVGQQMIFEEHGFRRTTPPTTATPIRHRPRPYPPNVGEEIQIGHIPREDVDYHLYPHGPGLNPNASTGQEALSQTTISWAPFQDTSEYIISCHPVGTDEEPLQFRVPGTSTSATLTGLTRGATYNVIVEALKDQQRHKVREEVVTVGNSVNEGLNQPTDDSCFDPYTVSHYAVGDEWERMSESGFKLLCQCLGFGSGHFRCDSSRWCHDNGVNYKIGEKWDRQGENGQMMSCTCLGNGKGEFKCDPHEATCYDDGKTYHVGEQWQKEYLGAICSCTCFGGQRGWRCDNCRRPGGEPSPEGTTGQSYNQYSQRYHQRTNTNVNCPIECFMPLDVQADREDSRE

Molecule: NC[C@H]1CC[C@H](C(=O)O)CC1 [TA, tranexamic acid]
Plasmin activity recovered from the cells [1]: no plasmin activity could be recovered from the cells

Molecule: Plg: native human plasminogen (glutamic acid N-terminal) purified from human plasma on lysine-Sepharose
Kd [2]: 1000 nM
Kd [3]: 35 nM
Kd [4]: 90 nM

Rate of inhibition of cell-bound u-PA relative to u-PA in solution ([5]; U937 cells): approximately 60%
Association rate constant ([5]; u-PA bound to uPAR on PMA-stimulated U937 cells): 110000 M⁻¹ s⁻¹
Association rate constant ([5]; u-PA bound to uPAR on U937 cells): 330000 M⁻¹ s⁻¹
Association rate constant ([6]; direct assay with u-PA specific fluorogenic peptide substrate): 520000 M⁻¹ s⁻¹
Association rate constant ([6]; plasminogen activation assay): 530000 M⁻¹ s⁻¹
B1: PAI-2: human type-2 plasminogen activator inhibitor purified from U937 cells (protein, UniProt P05120 1-415, looked up)
Plasminogen activator …: MEDLCVANTLFALNLFKHLAKASPTQNLFLSPWSISSTMAMVYMGSRGSTEDQMAKVLQFNEVGANAVTPMTPENFTSCGFMQQIQKGSYPDAILQAQAADKIHSSFRSLSSAINASTGNYLLESVNKLFGEKSASFREEYIRLCQKYYSSEPQAVDFLECAEEARKKINSWVKTQTKGKIPNLLPEGSVDGDTRMVLVNAVYFKGKWKTPFEKKLNGLYPFRVNSAQRTPVQMMYLREKLNIGYIEDLKAQILELPYAGDVSMFLLLPDEIADVSTGLELLESEITYDKLNKWTSKDKMAEDEVEVYIPQFKLEEHYELRSILRSMGMEDAFNKGRANFSGMSERNDLFLSEVFHQAMVDVNEEGTEAAAGTGGVMTGRTGHGGPQFVADHPFLFLIMHKITNCILFFGRFSSP
